In the supplement of paper PMC10567573:

B1: MLL5 (parent)
chain: TYLCERCQPRNLDKERAVLLQRRK
B2: LYSMD4 (parent)
chain: LLQRELAQEDSLNKLALQYGCKVA

Variants of: B1
Assay: protein stability index of a GFP-peptide fusion (GPS, HEK-293T) (PSI 1-6); higher = more stable
Conditions: c terminus: a fixed tail appended
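Also: lentivirally expressed fusions sorted by FACS into six bins by GFP to DsRed ratio, PSI derived from sequencing read proportions per bin multiplied by bin number.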

Protein stability index: each site, then its substitutions
C7: H 3.12, E 4.89, D 4.49, K 3.34, Q 3.65, W 3.6, T 4.37, V 3.32, L 3.12, F 3.27, N 3.93, S 4.63, P 3.94, M 3.2
E15: N 1.6, R 2.34, T 2.32, Q 2.24, F 2.14, I 2.2, D 2.42
L12: G 2.71, E 3.2, N 2.25, K 2.96, Q 3.79, R 2.02, H 1.98, A 2.56, D 2.01, Y 1.71, W 1.61, T 2.63
K24: A 1.73, E 2.25, I 1.6, H 2.74, P 2.38, M 1.81, Q 2.65, L 2.17, T 2.28, D 2.36
T1: R 2.76, I 1.93, M 1.39, D 2.73, G 1.82, N 2.13, Q 2.14, W 3.05, S 1.87, A 2.29, Y 2.14, F 1.27
Q21: K 2.64, M 2.46, C 2.02, S 1.99, V 1.84, E 2.09, H 3.22, N 2.42, G 2.91, T 1.81
K14: C 1.93, H 1.74, A 2.29, V 3.34, Q 2.23, M 3.36, N 2.29, I 1.87, S 2.51, T 3.29, L 3.62, Y 2.64, D 1.98
R23: S 2.35, F 2.03, P 2.5, N 2.36, K 2.91, Y 1.48, H 2.05, D 1.76, W 2.39, G 2.1, M 2.16
E5: T 1.61, F 1.94, N 1.94, Q 1.76, C 1.63, H 2.12, L 1.73, I 2.47, W 2.4, G 2.28, V 3.05
A17: D 2.25, S 2.32, T 1.95, H 2, N 2.65, M 2.58, W 2.16, P 1.77, V 2.42, F 2.07, G 1.78, Y 2.18
L3: E 3, P 2.31, D 2.99, W 1.96, F 1.82, S 2.18, N 3.55, R 2.16, G 2.85, I 1.55, H 2.44, C 1.45
Y2: K 3.44, Q 3.53, G 2.78, N 2.43, W 2.76, R 2.88, I 2.77, T 2.41
Q8: D 2.8, M 1.67, E 2.42, G 2.36, F 2.29, P 3.38, W 4.94, V 1.9, K 2.05, T 2.72
P9: A 1.86, S 2.27, F 2.15, Y 3.52, R 2.35, E 3.09, Q 3.16, D 2.32, L 2.69, N 3.62, C 2.76
R6: G 4.25, I 2.07, P 3.84, S 2.83, E 3.87, T 1.92, C 2.2, L 1.49, Q 2.53, V 2.42, K 1.59
D13: A 2.7, I 2.23, H 2.64, E 3.13, C 2.24, Q 2.53, W 2.16, K 2.71, M 2, V 1.88
C4: E 4.31, T 4.07, M 3.52, W 2.6, G 3.83, F 2.61, A 4.43, P 4.26, V 3.12, R 3.67, L 2.71, N 3.9, K 3.15, S 3.95, I 1.54
N11: K 2.05, Y 1.43, G 2.42, A 2.05, L 2.12, Q 2.41, R 2.15, T 3.08, F 1.9, E 1.52, C 2.11, M 2.04
V18: Q 2.19, A 1.81, S 2.21, W 2.2, M 2.19, P 1.6, H 2.16, I 2.68, F 1.96, E 2.52, C 2.11, D 2.73, T 2.82
R10: S 2.44, V 2.17, H 1.72, T 2.29, C 2.54, L 1.83, D 2.25, N 2.84, M 2.25, A 2.28, Q 2.48, K 1.74
L19: K 2.18, E 2.76, R 2.52, G 3.37, F 1.7, Y 2.83, S 2.9, P 1.85, H 2.54, V 1.96, W 1.93, N 2.08, C 2.03, T 2.07, Q 2.54
R16: I 1.94, P 2.24, V 2.27, M 3.23, N 2.01, E 1.92, T 2.25, F 2.09, H 2.61, S 1.36, A 2.49, Y 1.79, G 2.32
L20: N 2.68, P 2.08, A 2.37, W 2.31, F 2.3, T 1.58, M 2.4, Y 1.76, S 1.9, E 2.7
R22: A 2, C 2.08, I 2.44, E 1.76, S 2.34, N 1.99, D 2.2, V 1.98, P 2.9, T 2.1, Y 1.97, K 2.03, M 2.18, W 2.14

Variants of: B2
Assay: as above
Conditions: c terminus: a fixed tail appended

Protein stability index: each site, then its substitutions
V23: E 3.4, F 2.96, W 2.34, Y 2.45
Q18: P 2.95, S 1.74
L12: S 3.54, H 3.65, E 3.83
A24: T 2.19, K 1.82
A7: C 1.73, F 2.73, Y 2.12
L1: A 1.96
S11: Y 2.28, G 2.25
L15: M 2.85, D 4.51, K 3.1
G20: P 2.66, F 1.13, Y 1.74
L17: T 1.09, H 2.29
L6: D 2.5, M 1.37, T 1.92
Y19: M 2.02, S 3.13
L2: K 2.6, W 1.5, H 1.02, T 1.91, C 1.67
A16: G 2.18, S 1.98
Q3: Y 1.3, G 2.85, L 1.59, I 1.46
K14: F 2.4, C 2.37
N13: S 1.84, R 2.23
E5: H 1.91, S 1.87
Q8: D 4.68, H 1.54
E9: I 2.69, Q 2.2
D10: Y 1.82
K22: N 2.65, Q 2.21, L 1.62, D 2.08
